Results from IntAct's records for PubMed 23572552.

B1: TBC1 domain family member 22B (Homo sapiens), Q9NU19 (parent)
chain: MAAENSKQFWKRSAKLPGSIQPVYGAQHPPLDPRLTKNFIKERSKVNTVPLKNKKASSFHEFARNTSDAWDIGDDEEEDFSSPSFQTLNSKVALATAAQVLENHSKLRVKPERSQSTTSDVPANYKVIKSSSDAQLSRNSSDTCLRNPLHKQQSLPLRPIIPLVARISDQNASGAPPMTVREKTRLEKFRQLLSSQNTDLDELRKCSWPGVPREVRPITWRLLSGYLPANTERRKLTLQRKREEYFGFIEQYYDSRNEEHHQDTYRQIHIDIPRTNPLIPLFQQPLVQEIFERILFIWAIRHPASGYVQGINDLVTPFFVVFLSEYVEEDVENFDVTNLSQDMLRSIEADSFWCMSKLLDGIQDNYTFAQPGIQKKVKALEELVSRIDEQVHNHFRRYEVEYLQFAFRWMNNLLMRELPLRCTIRLWDTYQSEPEGFSHFHLYVCAAFLIKWRKEILDEEDFQGLLMLLQNLPTIHWGNEEIGLLLAEAYRLKYMFADAPNHYRR
B2: TBC1 domain family member 22A (Homo sapiens), Q8WUA7 (parent)
chain: MASDGARKQFWKRSNSKLPGSIQHVYGAQHPPFDPLLHGTLLRSTAKMPTTPVKAKRVSTFQEFESNTSDAWDAGEDDDELLAMAAESLNSEVVMETANRVLRNHSQRQGRPTLQEGPGLQQKPRPEAEPPSPPSGDLRLVKSVSESHTSCPAESASDAAPLQRSQSLPHSATVTLGGTSDPSTLSSSALSEREASRLDKFKQLLAGPNTDLEELRRLSWSGIPKPVRPMTWKLLSGYLPANVDRRPATLQRKQKEYFAFIEHYYDSRNDEVHQDTYRQIHIDIPRMSPEALILQPKVTEIFERILFIWAIRHPASGYVQGINDLVTPFFVVFICEYIEAEEVDTVDVSGVPAEVLCNIEADTYWCMSKLLDGIQDNYTFAQPGIQMKVKMLEELVSRIDEQVHRHLDQHEVRYLQFAFRWMNNLLMREVPLRCTIRLWDTYQSEPDGFSHFHLYVCAAFLVRWRKEILEEKDFQELLLFLQNLPTAHWDDEDISLLLAEAYRLKFAFADAPNHYKK

Variants of: B1
Settings: with gcp60_human ACBD3, Q9H3P7

Variant | effect of a mutation on the interaction
L88A;N89A;S90A | decreasing interaction strength
T143E | with no effect
S168E | with no effect
S114E | with no effect
K91A;V92A | with no effect
V100A;L101A | disrupting interaction strength
S116E;T117E;T118E;S119E | with no effect
Q99A | with no effect
L94A;T96A | with no effect
E102A;N103A;H104A | with no effect
S140E;S141E | with no effect
S58E | with no effect

Variants of: B2
Settings: with gcp60_human ACBD3, Q9H3P7

Variant | effect of a mutation on the interaction
N99A;R100A | with no effect
R103A;N104A;H105A | with no effect
V101A;L102A | disrupting interaction strength
V93A;V94A;M95A;E96A | decreasing interaction strength
E96A;T97A | with no effect

Variants of: B2
Settings: with gcp60_human ACBD3, Q9H3P7
Remark: another data set of the same source

Variant | effect of a mutation on the interaction
L81A;L82A | with no effect
Q107A;R108A;Q109A | with no effect
S165E;S167E | with no effect
T149E;S150E | decreasing interaction strength
Q320A | with no effect
E87A;S88A;L89A | with no effect
S165A | with no effect
S165E | with no effect
S132A | decreasing interaction strength
Q163A;R164A;S165A;Q166A | with no effect
S165A;S167A | with no effect
S167E | with no effect
